Experimental data taken from patent publication US20120164068A1 (AVIPEP, published 2012).
Residue numbers refer to the chain shown, from its start.

B1: AVP07-71 anti-HER2 scFv (Cys at Kabat L8 and L12, CDR3H cysteines removed, N-terminal serine) (scFv)
scFv: SVQLVQSGAEVKKPGESLKISCKGSGYSFTSYWIAWVRQMPGKGLEYMGLIYPGDSDTKYSPSFQGQVTISVDKSVSTAYLQWSSLKPSDSAVYFCARHDVGYASSSNAAKWPEYFQHWGQGTLVTVSSGGGGSGGGGSGGGGSQSVLTQPCSSCAAPGQKVTISCSGSSSNIGNNYVSWYQQLPGTVPKLLIYGHTNRPAGVPDRFSGSKSGTSASLAISGFRSEDEADYYCAAWDDSLSGWVFGGGTKLTVLG
notes: Monomeric scFv, unconjugated
B2: AVP07-63 anti-HER2 diabody (Cys at Kabat L8 and L12, CDR3H cysteines removed, N-terminal serine; Myc+(His)6 tag) (other)
chain: SVQLVQSGAEVKKPGESLKISCKGSGYSFTSYWIAWVRQMPGKGLEYMGLIYPGDSDTKYSPSFQGQVTISVDKSVSTAYLQWSSLKPSDSAVYFCARHDVGYASSSNAAKWPEYFQHWGQGTLVTVSSGGGGSQSVLTQPCSSCAAPGQKVTISCSGSSSNIGNNYVSWYQQLPGTVPKLLIYGHTNRPAGVPDRFSGSKSGTSASLAISGFRSEDEADYYCAAWDDSLSGWVFGGGTKLTVLG
notes: Diabody
B3: AVP07-63-PEG24 L8-L12 Diabody (other)
VH-linker-VL polypeptide of the diabody: B2 chain
modifications: engineered cysteines at Kabat L8 and L12 (VL FR1) conjugated with maleimide-PEG24-methoxy
notes: also called PEGylated AVP07-63
B4: AVP07-68 anti-HER2 diabody (Cys at Kabat L8 and L12, CDR3H cysteines removed, N-terminal serine; (His)6 tag) (other)
chain: B2 chain
notes: Diabody; It is identical to AVP07-63 except that it carries only the C-terminal (His)6 tag
B5: AVP07-17 anti-HER2 diabody (other)
chain: B2 chain with S1Q, A104C, A109C, C142P, S144V, C145S
notes: Diabody of two VH-Gly4Ser-VL chains from a human anti-HER2 mAb, with a lambda VL; also called AVP07-17 Avibody

How the values were obtained:
[1] = biological target: T1, recombinant HER2 ectodomain (UniProt P04626 23-652, limits assumed); experiment: column shift assay: size exclusion chromatography of the Avibody with and without soluble antigen (recombinant HER2 ectodomain), A280
T1 construct: extracellular domain

[2] = biological target: T1, recombinant HER2 ectodomain; experiment: column shift assay: size exclusion chromatography of the PEG24 conjugate with and without soluble antigen (recombinant HER2 ectodomain), A280
[3] = biological target: T1, recombinant HER2 ectodomain; experiment: column shift assay: size exclusion chromatography of the Avibody with and without soluble antigen (recombinant HER2 ectodomain), A280; remark: listed apart in the source

Binder	binding result [1]	other results
B1	binds	–
B2	binds	–
B3	–	binding result [2]: binds
B4	–	binding result [3]: binds
B5	binds	–
